Data as given in article doi:10.1101/2025.02.21.639491 (bioRxiv, 2025).
Numbering of substitutions follows the chain as printed. In names and notes the source's numbering stands.

B1: wild-type mouse PADI6 (peptidyl arginine deiminase 6) (natural protein, UniProt Q8K3V4 1-682, looked up)
chain: MSFQNSLSLSLVNPTHALCMVGMEITLDISKCAPDKCKSFTIRGSPRILIHISSSVIAGKEDTVVWRSMNHPTVALVRMVAPSPTVDEDKVLVSYFCPDQEVPTATAVLFLTGIEISLEADIYRDGQLDMPSDKQAKKKWMWGMNGWGAILLVNCSPNAVGQPDEQSFQEGPREIQNLSQMNVTVEGPTSILQNYQLILHTSEEEAKKTRVYWSQRGSSAYELVVGPNKPVYLLPTFENRRKEAFYVEATEFPSPSFSGLISLSLSLVEKAHDECIPEIPLYKDTVMFRVAPYIFMPSTQMPLEVYLCRELQLQGFVDSVTKLSEKSKVQVVKVYEDPNRQSKWLQDEMAFCYTQAPHKTVSLILDTPRVSKLEDFPMKYTLTPGSGYLIRQTEDHRVASLDSIGNLMVSPPVKAQGKDYPLGRVLIGGSFYPSSEGRDMNKGLREFVYAQQVQAPVELFSDWLMTGHMDQFMCFVPTNDKNNDQKDFRLLLASPSACFELFEQKQKEGYGNVTLFEDIGAEQLLSNGRESKTISQILADKSFREQNTYVEKCISLNRTLLKTELGLEDKDIILIPQLFCLEQLTNVPSNQQSTKLFARPYFPDMLQIIVLGKNLGIPKPFGPKINGTCCLEEKVCGLLEPLGLKCTFIDDFDCYLANIGDVCASAIINRVPFAFKWWKMTP
B2: mouse PADI6 C663A (natural protein, UniProt Q8K3V4 1-682, looked up)
chain: B1 chain with C663A

Molecular target: the molecule itself
Assay: mass photometry

Protein | stoichiometry N
B1 | 2
B2 | 2
